Test results taken from PMC13534707, “Vps1 drives membrane constriction and fission necessary for endosomal protein sorting” (The EMBO Journal, 2026).
Substitutions are numbered along the chain they refer to. Names may count otherwise.

B1: Vps1(Δ3K) (enzyme, S. cerevisiae, UniProt P21576 1-704, looked up)
chain: MDEHLISTINKLQDALAPLGGGSQSPIDLPQITVVGSQSSGKSSVLENIVGRDFLPRGTGIVTRRPLVLQLINRRPKKSEHAKVNQTANELIDLNINDDDKKKDESGKHQNEGQSEDNKEEWGEFLHLPGKKFYNFDEIRKEIVKETDKVTGANSGISSVPINLRIYSPHVLTLTLVDLPGLTKVPVGDQPPDIERQIKDMLLKYISKPNAIILSVNAANTDLANSDGLKLAREVDPEGTRTIGVLTKVDLMDQGTDVIDILAGRVIPLRYGYIPVINRGQKDIEHKKTIREALENERKFFENHPSYSSKAHYCGTPYLAKKLNSILLHHIRQTLPEIKAKIEATLKKYQNELINLGPETMDSASSVVLSMITDFSNEYAGILDGEAKELSSQELSGGARISYVFHETFKNGVDSLDPFDQIKDSDIRTIMYNSSGSAPSLFVGTEAFEVLVKQQIRRFEEPSLRLVTLVFDELVRMLKQIISQPKYSRYPALREAISNQFIQFLKDATIPTNEFVVDIIKAEQTYINTAHPDLLKGSQAMVMVEEKLHPRQVAVDPKTGKPLPTQPSSSKAPVMEEKSGFFGGFFSTKNLAALESPPPVLKATGQMTERETMETEVIKLLISSYFSIVKRTIADIIPKALMLKLIVKSKTDIQKVLLEKLYGKQDIEELTKENDITIQRRKECKKMVEILRNASQIVSSV
notes: Vps1, S. cerevisiae, lacking the lysine-rich 3K motif (residues 591-593) of Insert B; Same tags as m1; source: bacterially expressed, T7 Express (NEB), purified (Strep-trap HP or Streptactin XT)
B2: Vps1(Δ4F) (enzyme, S. cerevisiae, UniProt P21576 1-704, looked up)
chain: MDEHLISTINKLQDALAPLGGGSQSPIDLPQITVVGSQSSGKSSVLENIVGRDFLPRGTGIVTRRPLVLQLINRRPKKSEHAKVNQTANELIDLNINDDDKKKDESGKHQNEGQSEDNKEEWGEFLHLPGKKFYNFDEIRKEIVKETDKVTGANSGISSVPINLRIYSPHVLTLTLVDLPGLTKVPVGDQPPDIERQIKDMLLKYISKPNAIILSVNAANTDLANSDGLKLAREVDPEGTRTIGVLTKVDLMDQGTDVIDILAGRVIPLRYGYIPVINRGQKDIEHKKTIREALENERKFFENHPSYSSKAHYCGTPYLAKKLNSILLHHIRQTLPEIKAKIEATLKKYQNELINLGPETMDSASSVVLSMITDFSNEYAGILDGEAKELSSQELSGGARISYVFHETFKNGVDSLDPFDQIKDSDIRTIMYNSSGSAPSLFVGTEAFEVLVKQQIRRFEEPSLRLVTLVFDELVRMLKQIISQPKYSRYPALREAISNQFIQFLKDATIPTNEFVVDIIKAEQTYINTAHPDLLKGSQAMVMVEEKLHPRQVAVDPKTGKPLPTQPSSSKAPVMEEKTKNKKKLAALESPPPVLKATGQMTERETMETEVIKLLISSYFSIVKRTIADIIPKALMLKLIVKSKTDIQKVLLEKLYGKQDIEELTKENDITIQRRKECKKMVEILRNASQIVSSV
notes: Vps1, S. cerevisiae, lacking the phenylalanine-rich 4F motif (residues 579-587) of Insert B; Same tags as m1; source: bacterially expressed, T7 Express (NEB), purified (Strep-trap HP or Streptactin XT)
B3: Vacuolar protein sorting-associated protein 1 (Vps1), wild type, recombinant (enzyme, S. cerevisiae, UniProt P21576 1-704, looked up)
chain: MDEHLISTINKLQDALAPLGGGSQSPIDLPQITVVGSQSSGKSSVLENIVGRDFLPRGTGIVTRRPLVLQLINRRPKKSEHAKVNQTANELIDLNINDDDKKKDESGKHQNEGQSEDNKEEWGEFLHLPGKKFYNFDEIRKEIVKETDKVTGANSGISSVPINLRIYSPHVLTLTLVDLPGLTKVPVGDQPPDIERQIKDMLLKYISKPNAIILSVNAANTDLANSDGLKLAREVDPEGTRTIGVLTKVDLMDQGTDVIDILAGRVIPLRYGYIPVINRGQKDIEHKKTIREALENERKFFENHPSYSSKAHYCGTPYLAKKLNSILLHHIRQTLPEIKAKIEATLKKYQNELINLGPETMDSASSVVLSMITDFSNEYAGILDGEAKELSSQELSGGARISYVFHETFKNGVDSLDPFDQIKDSDIRTIMYNSSGSAPSLFVGTEAFEVLVKQQIRRFEEPSLRLVTLVFDELVRMLKQIISQPKYSRYPALREAISNQFIQFLKDATIPTNEFVVDIIKAEQTYINTAHPDLLKGSQAMVMVEEKLHPRQVAVDPKTGKPLPTQPSSSKAPVMEEKSGFFGGFFSTKNKKKLAALESPPPVLKATGQMTERETMETEVIKLLISSYFSIVKRTIADIIPKALMLKLIVKSKTDIQKVLLEKLYGKQDIEELTKENDITIQRRKECKKMVEILRNASQIVSSV
notes: Vps1, S. cerevisiae; the Vps1 gene amplified from genomic DNA and cloned into pET15b; A TEV site follows the N-terminal 6xHis tag; also called WT; wild-type Vps1; source: bacterially expressed, T7 Express (NEB), purified (Strep-trap HP or Streptactin XT)
B4: Vps1(G436D) (enzyme, S. cerevisiae, UniProt P21576 1-704, looked up)
chain: B3 chain with G436D
notes: Vps1, S. cerevisiae, with G436D made by site-directed mutagenesis of the pET15b construct; Same tags as m1; source: bacterially expressed, T7 Express (NEB), purified (Strep-trap HP or Streptactin XT)

How the values were obtained:
[1] = target: Vps1(ΔInsB) (S. cerevisiae) (UniProt P21576); experiment: SEC-MALS; purified Vps1 (~0.32 mg/ml) on Superose 6 10/300 GL, 20 mM HEPES pH 7.5, 150 mM NaCl, room temperature; self-association in solution
[2] = target: the molecule itself; experiment: as above

Molecule	stoichiometry N [2]	also measured
Vps1(ΔInsB) (from UniProt P21576 1-535; P21576 613-704) (enzyme)		stoichiometry N [1]: 2
B1	4	
B2	4	
B3		binding result [2]: binds
B4	2	
